Laboratory results: publication PMC7237784

Target: T1, AcFur (Acidithiobacillus caldus MTH-04) (UniProt A0A060A2G1)
T1 sequence: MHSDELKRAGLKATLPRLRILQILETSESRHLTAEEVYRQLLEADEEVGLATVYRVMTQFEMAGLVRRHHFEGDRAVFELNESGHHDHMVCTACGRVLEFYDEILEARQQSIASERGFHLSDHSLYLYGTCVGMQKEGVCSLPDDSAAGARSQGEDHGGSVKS
Assay: EMSA
Conditions: EMSA: 0.4 nM DNA, 0/2/4/8 nM protein, 10 mM Tris-HCl pH 8.0, 100 mM NaCl, 1 mM MnCl2, room temperature, 30 min; 5% native PAGE in 0.5x TBE, EB stain

| Sequence | binding |
| --- | --- |
| GCGTAGGACGTCCTTGATAACTGCAACTAAGTTGCATATATTCCGCACGACCACTCCGCGCGTCCCTGGGGAGCTTGACCGGTAAGTCTATTTATTGAATGATAATGATTAGCATTTATATTATTTGGAGAGATTGTCCATGCGTCGTATACCCCTCTGTGCGCTGCTGAGCACCATGCTTGCTTCCAGC (double strand) [feoP promoter] | binds |
| TTCCACCTGCTCACCTGCGCGGGCCGAGCTCAGGCGGTGGGGGGAAAGGACTTGGGTCATGACGCTCACACTCCCAACGAGTTCGTGGGGACACTATATCATAATGGTAATCATTTGCAATATCAGCCCAAGGGAGGGCCGTCCCGGCGGACGCAGCCGCCGACGCTCAGTCCAGGTCGCCGTGCCTGGGTGTAAAACGC (double strand) [feoABC operator (feoA promoter)] | binds |
